Data from patent US20260008856A1, “METHODS OF TREATING DISEASE USING ANTI-IL1RAP ANTIBODIES AND ANTIBODY DRUG CONJUGATES” (Bluefin Biomedicine, Inc., priority 2022, published 2026).

Assays:
H69 = experiment: Flow cytometry binding to endogenous cell line H69; assay type: cell-based; parameters: key: (−): No binding; (+): Weak binding; (++): Moderate binding; (+++): Strong binding; details: primary antibody 1 ug/ml
Experimental: Staining for flow cytometry was performed in 1× cold PBS with 0.5% BSA. Primary antibodies (1 ug/ml) were incubated with live cells on ice for 30 minutes, after a brief wash, cells were incubated with Alexa Fluro® 488-conjugated anti-human IgG secondary antibody @1:1000 (709-546-149, Jackson ImmunoResearch). Acquisition of the data was performed on a MACSQuant® Flow Cytometers (Miltenyi Biotec) and analyzed with FlowJo software.

EOL-1 = experiment: Flow cytometry binding to endogenous cell line EOL-1; assay type: cell-based, human; parameters: key to binding to EOL-1 by flow cytometry: (−): No binding; (+): Weak binding; (++): Moderate binding; (+++): Strong binding; details: primary antibody 1 ug/ml
Summary of the method: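 Live cells stained on ice for 30 minutes with primary antibody at 1 ug/ml in cold PBS/0.5% BSA, then washed and detected with Alexa Fluor 488 anti-human IgG (1:1000). Binding read by flow cytometry on endogenous IL1RAP-positive lines.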

IL-33 signaling = IL-33 signaling reporter cell assay (HEK-Blue IL-33 cells); assay type: cell-based; details: antibody 1-10 μg/ml, IL-33 0.5 ng/ml
Experimental: FIGS. 7A and 7B show blockage of IL-33 signaling by anti-IL1RAP antibodies. HEK-Blue IL-33 cells (Invivogen, CA) were harvested and plated in technical duplicates at a density of 50,000 cells per well in a 96-well plate. Antibodies, or a corresponding human IgG1 control antibody, was added to the wells in a serial dilution starting at 10 μg/ml (FIG. 7A), or a concentration of 1 and 10 μg/ml (FIG. 7B). After incubating cells with antibodies for 30 minutes, IL-33 was added to a final concentration of 0.5 ng/ml, and the plate was incubated overnight. 24 hours later, substrate was added to the supernatants, and samples were analyzed for absorbance at 620 nm. CBIgG1 (anti-hen egg lysozyme antibody, CrownBio™) was included as a negative control.
HEK-Blue IL-33 cells (Invivogen, CA) were harvested and plated in technical duplicates at a density of 50,000 cells per well in a 96-well plate. antibodies, or a corresponding human IgG1 control antibody was added to the wells in a concentration range of […]. After incubating cells with antibodies for 30 minutes, IL-33 was added to a final concentration of 0.5 ng/ml, and the plate was incubated overnight. To examine whether any of the antibodies were able to induce ST2 activation in the absence of IL-33, samples were incubated with 10 μg/mL antibody without addition of the ligand. The following day, substrate was added to the supernatants, and samples were analyzed for absorbance at 620 nm.

[1] = tested on: normal human dermal fibroblasts (NHDF); experiment: IL-6 and IL-8 production in NHDF stimulated with cytokine combo incl. IL-17A; assay type: cell-based; details: cytokine combo IL-1α/β, IL-36α/β/γ, antibodies 0-20 ug/ml, BFB759 0.5 ug/ml in combination
Experimental: Human NHDF cells were plated on 96-well, flat-bottom plates at 4,000 cells/well. […] For combination therapy, 0.5 ug/ml BFB759 was mixed with Secukinumab or Isotype control antibody at increasing concentrations (0-20 ug/ml, 5-fold dilution) and incubated with cells in duplicate for 45 minutes, prior to the addition of cytokine combo. The plates were then incubated overnight at 37° C., 5% CO2. 24 hours after treatment, supernatants were transferred and assayed for IL-6 and IL-8, as per manufacture's protocol (R&D Systems; Human IL-6 DuoSet ELISA, Human IL-8/CXCL8 DuoSet ELISA). The raw assay data were analyzed using GraphPad Prism 9 software to perform a non-linear regression.

recombinant human IL1RAP = molecular target: T1, recombinant human IL1RAP (Homo sapiens, UniProt Q9NPH3); experiment: Binding competition binning on Octet; details: Protein A biosensors
T1 construct: MBP-IL1RAP(S21-T367)-; 8xHis (C); made in house; host or cells: CHO (ExpiCHO transient expression)
Summary of the method: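 Protein A biosensors loaded with first antibody (10 ug/mL, 5 min), blocked with irrelevant antibody (100 ug/mL, 5 min). Then exposed to recombinant human IL1RAP (1 min) and a second antibody (1 min). Octet interferometry signal increase indicates non-competing pairs; antibodies assigned to bins.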

B1: 37E10_15B5: human anti-IL1RAP antibody BFB759 (i.e., 37E10_15B5), VH SEQ ID NO: 64, VL SEQ ID NO: 68 (antibody, V domains shown)
VH: QVQLVESGGGVVQPGRSLRLSCAASGFTFRSHGMHWVRQAPGKGLEWVAVIWYDGSSEYYADSVKGRFTISRDNSKNTLYLQMNSLRAEDTAVYYCARENVYGSGWFFDYWGQGTLVTVSS
VL: EIVMTQSPATLSVSPGERASLSCRASQSVGSNLAWYQQRPGQAPRLLIFGASTRATGIPARFSGSRSGTEFTLTISSLQSEDFALYYCQQYNNWPPWTFGQGTKLEIK
binding to H69 by flow cytometry (H69): (−) | binding to EOL-1 by flow cytometry (EOL-1): (+++) | inhibition of IL-33 signaling (IL-33 signaling): partially inhibit | IL-6 production [1]: dose-dependent decrease | IL-8 production [1]: dose-dependent decrease | competition for binding, bin (2) (recombinant human IL1RAP): competed with each other
